From paper PMC10397247 come the findings set out here.

What all share (assay): two-hybrid library CCNG1;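 further: natural log of median RNA to DNA barcode read ratio; higher means stronger binding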
One experiment concerns the target T1, 4H4073-bA.
T1 chain: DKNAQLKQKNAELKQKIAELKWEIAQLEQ

The target in a further experiment is T2, 4H2702-bA.
T2 chain: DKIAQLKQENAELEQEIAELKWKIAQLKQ

The target in a further experiment is T3, 4H3010-bA.
T3 chain: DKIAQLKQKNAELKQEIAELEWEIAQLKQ

The next experiment deals with T4, 4H3112-bA.
T4 chain: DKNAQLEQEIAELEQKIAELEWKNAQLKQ

Another experiment deals with T5, 4H3427-bA.
T5 chain: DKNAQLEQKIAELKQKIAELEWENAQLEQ

Another experiment has as its target T6, 4H683-bA.
T6 chain: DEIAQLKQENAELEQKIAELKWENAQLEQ

A further experiment addresses T7, 4H575-bA.
T7 chain: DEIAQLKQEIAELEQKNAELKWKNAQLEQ

The next experiment concerns the target T8, 4H2673-bA.
T8 chain: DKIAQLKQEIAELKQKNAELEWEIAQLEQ

Another experiment concerns the target T9, 4H780-bA.
T9 chain: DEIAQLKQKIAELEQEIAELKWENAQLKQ

Another experiment deals with T10, 4H855-bA.
T10 chain: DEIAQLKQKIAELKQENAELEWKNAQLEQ

A further experiment deals with T11, 4H797-bA.
T11 chain: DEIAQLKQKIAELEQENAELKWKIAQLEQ

For another experiment, the target named is T12, 4H918-bA.
T12 chain: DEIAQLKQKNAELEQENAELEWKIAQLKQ

Another experiment has as its target T13, 4H754-bA.
T13 chain: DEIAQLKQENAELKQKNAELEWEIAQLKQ

The next experiment has as its target T14, 4H346-bA.
T14 chain: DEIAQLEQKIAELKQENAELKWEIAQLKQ

The next experiment concerns the target T15, 4H953-bA.
T15 chain: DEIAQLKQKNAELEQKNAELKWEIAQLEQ

In the next experiment the target is T16, 4H968-bA.
T16 chain: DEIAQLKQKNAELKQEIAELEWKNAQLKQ

The next experiment addresses T17, 4H457-bA.
T17 chain: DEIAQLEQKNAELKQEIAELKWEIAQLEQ

The target of a further experiment is T18, 4H3926-bA.
T18 chain: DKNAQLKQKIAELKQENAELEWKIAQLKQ

Another experiment addresses T19, O9-bA.
T19 chain: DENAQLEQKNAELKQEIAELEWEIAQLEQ

For another experiment, the target named is T20, O3-bA.
T20 chain: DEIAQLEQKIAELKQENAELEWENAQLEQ

The target of a further experiment is T21, O7-bA.
T21 chain: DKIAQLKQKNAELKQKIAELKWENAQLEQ

The next experiment deals with T22, O8-bA.
T22 chain: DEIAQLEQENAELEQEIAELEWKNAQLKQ

The target of the next experiment is T23, O2-bA.
T23 chain: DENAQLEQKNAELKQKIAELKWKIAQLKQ

For another experiment, the target named is T24, O6-bA.
T24 chain: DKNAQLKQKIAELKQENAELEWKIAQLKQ

The target of a further experiment is T25, O5-bA.
T25 chain: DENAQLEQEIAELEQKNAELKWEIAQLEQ

For the next experiment, the target named is T26, O4-bA.
T26 chain: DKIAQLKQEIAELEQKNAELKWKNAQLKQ

The target of another experiment is T27, 4H470-bH.
T27 chain: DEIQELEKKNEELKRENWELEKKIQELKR

In another experiment the target is T28, P9mS.
T28 chain: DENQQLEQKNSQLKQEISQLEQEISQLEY

As for DKIAQLKQEIAELKQKNAELEWEIAQLEQ [4H2673-bA], the interaction score in the experiment with 4H4073-bA is 0.202; in the experiment with 4H2702-bA, -1.01; in the experiment with 4H3010-bA, 2; with 4H3112-bA it was -0.873; in the experiment with 4H3427-bA, -1.17; in the experiment with 4H683-bA, -0.575. For the same molecule, the interaction score with 4H575-bA was 0.276; in the experiment with 4H2673-bA it was 0.275; in the experiment with 4H780-bA, -1.03; in the experiment with 4H855-bA, 0.000366; in the experiment with 4H797-bA, -2.16; with 4H918-bA, -0.235. The interaction score with 4H754-bA was -0.889; in the experiment with 4H346-bA it was -0.931; with 4H953-bA, -0.927; with 4H968-bA it was -0.811; in the experiment with 4H457-bA, -1.45; with 4H3926-bA, 1.58.
Turning to DENAQLEQKNAELKQKIAELKWKIAQLKQ [O2-bA], the interaction score with O9-bA was 1; in the experiment with O3-bA, -0.0372; with O7-bA, -0.0715; with O8-bA it was 0.682; with O2-bA it was -0.405; with O6-bA, -0.5. For the same molecule, the interaction score with O5-bA is 0.59; with O4-bA, -0.35.
The molecule DEIQELEKKNEELKRENWELEKKIQELKR [4H470-bH] had an interaction score with 4H470-bH of 0.789.
In turn, DENQQLEQKNSQLKQEISQLEQEISQLEY [P9mS] had an interaction score in the experiment with P9mS of -1.32.
